Data on three molecules can be found in patent US20240218065A1 (SHENGHE CHINA BIOPHARMACEUTICAL, published 2024).

Read-outs that look alike come from different tables or passages of the source.

Assay [1] deals with T1, Human-GPC3-His (human, UniProt P51654 25-559, limits assumed).
T1 construct: Coated on the ELISA plate; also called GPC-3 protein; GPC3 protein; not shown: His tag
The assay can be described thus: ELISA: Human-GPC3-His coated at 0.5 µg/mL, antibody titrated 3-fold from 10 µg/mL, HRP goat anti-human IgG-Fc, OD450-OD570. Here is the method: (§1) Human-GPC3-His was diluted to 0.5 μg/mL with PBS buffer at pH 7.4, added into the 96-well ELISA plate at 100 μL per well, coated overnight at 4° C., and blocked with 1% BSA blocking solution for 1 hour. The plate was washed 3 times with PBST, and the constructed antibody was diluted to 10 μg/mL with 0.5% BSA sample diluent as the starting concentration, and then diluted by 3-fold gradient (11 gradients in total) and incubated at 37° C. for 1 h at 100 μL per well. The plate was washed 3 times with PBST, and then HRP-labelled goat anti-human IgG-Fc was diluted with the sample diluent at 1:20000. 100 μL was added into each well, and incubated at room temperature for 1 hour. A negative control (blank well and IgG1 isotype control) and a positive control were set, and the positive control was a GPC-3 and CD3 bispecial antibody from the literature Hs, A, et al. “Engineering a bispecific antibody with a common light chain: Identification and optimization of an anti-CD3 epsilon and anti-GPC3 bispecific antibody, ERY974.” Methods 154 (2019): 10-20. (The GPC-3 and CD3 bispecial antibody sequence consists of SEQ ID No. 22, SEQ ID No. 23, and SEQ ID No. 24). The plate was washed 4 times with PBST, and 100 μL of TMB substrate was added into each well, and incubated at room temperature without light for 10 minutes. 100 μL of 1 M HCl solution was added into each well to terminate the color development reaction. The absorbance value of each well in the 96-well plate was determined by selecting the wavelength of 450 nm and the reference wavelength of 570 nm on a multifunctional enzyme marker, and the absorbance value (OD)=OD₄₅₀ₙₘ−OD₅₇₀ₙₘ. The logarithm of the concentration of the constructed antibody was taken as the abscissa, and the measured absorbance value of each well was taken as the ordinate, and the Sigmoidaldose-response (Variable Slope) method (GraphPad Prism software, GraphPad Software, San Diego, California) was selected for nonlinear regression to obtain the binding curve of the target antibody to the GPC-3 protein.
(ELISA stands for enzyme-linked immunosorbent assay.)

The target of assay [2] is T2, Human-NKP30-His (Kactus, cat: NKP-HM430) (human, UniProt O14931 19-138, limits assumed).
T2 construct: also called NKP30 protein; NKP30-his protein; not shown: His tag
T2 sequence (looked up): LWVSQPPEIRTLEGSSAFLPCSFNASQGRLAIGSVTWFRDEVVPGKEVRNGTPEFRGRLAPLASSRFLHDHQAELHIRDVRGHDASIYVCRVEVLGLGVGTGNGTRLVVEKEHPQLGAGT
The assay can be described thus: ELISA: Human-NKP30-His coated, antibody titrated 3-fold from 10 µg/mL, HRP goat anti-human IgG-Fc, OD450-OD570. Here is the method: (§2) Human-NKP30-His (Kactus, cat: NKP-HM430) was diluted to […] with PBS buffer at pH 7.4, added into the 96-well ELISA plate at 100 μL per well, coated overnight at 4° C., and blocked with 1% BSA blocking solution for 1 hour. The plate was washed 3 times with PBST, and the constructed antibodies were diluted to 10 μg/mL with 0.5% BSA sample diluent as the starting concentration, and then diluted by 3-fold gradient (11 gradients in total). A negative control (blank well and IgG1 isotype control) and a positive control were set, and the positive control was a NKP30 humanized antibody (sequence shown in SEQ ID No. 28), and incubated at 37° C. for 1 h at 100 μL per well. […] The absorbance value of each well in the 96-well plate was determined by selecting the wavelength of 450 nm and the reference wavelength of 570 nm on a multifunctional enzyme marker, and the absorbance value (OD)=OD₄₅₀ₙₘ−OD₅₇₀ₙₘ. The logarithm of the concentration of the constructed antibody was taken as the abscissa, and the measured absorbance value of each well was taken as the ordinate, and the Sigmoidaldose-response (Variable Slope) method (GraphPad Prism software, GraphPad Software, San Diego, California) was selected for nonlinear regression to obtain the binding curve of the target antibody to NKP30.

For assay [3], the target named is T1, Human-GPC3-His. The assay can be described thus: ELISA: Human-GPC3-His coated at 0.5 µg/mL, antibody titrated 3-fold from 10 µg/mL, HRP goat anti-human IgG-Fc, OD450-OD570. Here is the method:
as §1
This is another data set of the same source.

In assay [4] the target is T2, Human-NKP30-His (Kactus, cat: NKP-HM430). The assay can be described thus: ELISA: Human-NKP30-His coated, antibody titrated 3-fold from 10 µg/mL, HRP goat anti-human IgG-Fc, OD450-OD570. Here is the method:
as §2
This is another data set of the same source.

Assay [5] has the same target. The description is as above. Here is the method:
(§3) Human-NKP30-His (Kactus, cat: NKP-HM430) was diluted to […] with PBS buffer at pH 7.4, added into the 96-well ELISA plate at 100 μL per well, coated overnight at 4° C., and blocked with 1% BSA blocking solution for 1 hour. The plate was washed 3 times with PBST, and the constructed antibodies were diluted to 10 μg/mL with 0.5% BSA sample diluent as the starting concentration, and then diluted by 3-fold gradient (11 gradients in total). A negative control (blank well and IgG1 isotype control) and a positive control were set, and the positive control was a NKP30 humanized antibody (sequence shown in SEQ ID No. 28), and incubated at 37° C. for 1 h at 100 μL per well. The plate was washed 3 times with PBST, and then HRP-labelled goat anti-human IgG-Fc was diluted with the sample diluent at 1:20000. 100 μL was added into each well, and incubated at room temperature for 1 hour. The plate was washed 4 times with PBST, and 100 μL of TMB substrate was added into each well, and incubated at room temperature without light for 10 minutes. 100 μL of 1 M HCl solution was added into each well to terminate the color development reaction. The absorbance value of each well in the 96-well plate was determined by selecting the wavelength of 450 nm and the reference wavelength of 570 nm on a multifunctional enzyme marker, and the absorbance value (OD)=OD₄₅₀ₙₘ−OD₅₇₀ₙₘ. The logarithm of the concentration of the constructed antibody was taken as the abscissa, and the measured absorbance value of each well was taken as the ordinate, and the Sigmoidaldose-response (Variable Slope) method (GraphPad Prism software, GraphPad Software, San Diego, California) was selected for nonlinear regression to obtain the binding curve of the target antibody to NKP30.
This is another data set of the same source.

Assay [6] has the same target. The assay is described as above. Here is the method: as §3
This is another data set of the same source.

T1 sequence (P51654 25-559 limits assumed): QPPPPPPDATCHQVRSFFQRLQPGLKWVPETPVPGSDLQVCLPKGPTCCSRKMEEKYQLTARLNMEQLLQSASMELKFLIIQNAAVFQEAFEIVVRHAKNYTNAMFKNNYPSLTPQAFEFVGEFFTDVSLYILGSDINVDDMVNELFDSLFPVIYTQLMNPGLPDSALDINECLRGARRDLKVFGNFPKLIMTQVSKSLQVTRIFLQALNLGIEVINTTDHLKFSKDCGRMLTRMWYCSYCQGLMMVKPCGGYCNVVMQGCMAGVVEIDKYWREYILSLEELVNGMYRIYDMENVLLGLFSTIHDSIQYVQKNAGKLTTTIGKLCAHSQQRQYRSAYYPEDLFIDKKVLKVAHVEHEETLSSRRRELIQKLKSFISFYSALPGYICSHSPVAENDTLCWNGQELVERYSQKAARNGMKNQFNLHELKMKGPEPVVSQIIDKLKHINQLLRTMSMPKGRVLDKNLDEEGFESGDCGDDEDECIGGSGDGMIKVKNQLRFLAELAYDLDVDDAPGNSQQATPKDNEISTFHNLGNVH

B1: GN15-H (bispecific antibody, human IgG1, kappa)
light: DVVMTQSPLSLPVTPGEPASISCRSSQSLVHSNRNTYLHWYLQKPGQSPQLLIYKVSNRFSGVPDRFSGSGSGTDFTLKISRVEAEDVGVYYCSQNTHVPPTFGQGTKLEIKRTVAAPSVFIFPPSDEQLKSGTASVVCLLNNFYPREAKVQWKVDNALQSGNSQESVTEQDSKDSTYSLSSTLTLSKADYEKHKVYACEVTHQGLSSPVTKSFNRGEC
heavy 1: not shown
heavy 2: QVQLVQSGAEVKKPGASVKVSCKASGYTFTDYEMHWVRQAPGQGLEWMGALDPKTGDTAYSQKFKGRVTLTADKSTSTAYMELSSLTSEDTAVYYCTRFYSYTYWGQGTLVTVSSASTKGPSVFPLAPSSKSTSGGTAALGCLVKDYFPEPVTVSWNSGALTSGVHTFPAVLQSSGLYSLSSVVTVPSSSLGTQTYICNVNHKPSNTKVDKKVEPKSCDKTHTCPPCPGGGGSGGGGSPALLLLLLLRPPATRGITCPPPMSVEHADIWVKSYSLYSRERYICNSGFKRKAGTSSLTECVLNKATNVAHWTTPSLKCIRDPALVHQRPAPPSTVTTAGVTPQPESLSPSGKEGGGGSGGGGSAPELLGGPSVFLFPPKPKDTLMISRTPEVTCVVVDVSHEDPEVKFNWYVDGVEVHNAKTKPREEQYNSTYRVVSVLTVLHQDWLNGKEYKCKVSNKALPAPIEKTISKAKGQPREPQVYTLPPSRDELTKNQVSLTCLVKGFYPSDIAVEWESNGQPENNYKTTPPVLDSDGSFFLASKLTVDKSRWQQGNVFSCSVMHEALHNHYTQKSLSLSPGK
notes: Trifunctional antibody against GPC-3 and NKP30 with IL-15 and IL-15Rα sushi between CH1 and CH2; also called constructed antibody GN15-H; multifunctional antibody
For B1, the concentration giving a half-maximal response (EC50 (read off the curve)) (usually the concentration giving half of the maximal effect) in assay [1] is around 0.01 µg/mL; in assay [2], around 0.06 µg/mL.

B2: GN15-A (bispecific antibody, human IgG1, kappa)
light: EVQLVESGGGLVQPGGSLRLSCAASGITFSRSVMGWFRQAPGKLRELVAGITSDDNTDYADSVKGRFTISRDNSKNTLYLQMNSLRAEDTAVYYCNILPDSRLGWGQGTLVTVSSGGGGSGGGGSGGGGSDVVMTQSPLSLPVTPGEPASISCRSSQSLVHSNRNTYLHWYLQKPGQSPQLLIYKVSNRFSGVPDRFSGSGSGTDFTLKISRVEAEDVGVYYCSQNTHVPPTFGQGTKLEIKRTVAAPSVFIFPPSDEQLKSGTASVVCLLNNFYPREAKVQWKVDNALQSGNSQESVTEQDSKDSTYSLSSTLTLSKADYEKHKVYACEVTHQGLSSPVTKSFNRGEC
heavy 1: not shown
heavy 2: B1 heavy 2
notes: Trifunctional antibody against GPC-3 and NKP30 with IL-15 and IL-15Rα sushi between CH1 and CH2 of the two heavy chains; IgG1 knob/hole Fc; also called constructed antibody GN15-A; multifunctional antibody
As to B2, the “EC50 (read off the curve)” value in assay [3] was around 0.03 µg/mL; in assay [4], around 0.02 µg/mL.

B3: NKP30 humanized antibody (antibody, V domains shown)
VH: EVQLVESGGGLVQPGGSLRLSCAASGITFSRSVMGWFRQAPGKLRELVAGITSDDNTDYADSVKGRFTISRDNSKNTLYLQMNSLRAEDTAVYYCNILPDSRLGWGQGTLVTVSS
notes: detected with anti-human IgG-Fc
B3: the half-maximal effective concentration (EC50 (read off the curve)) in assay [5], in assay [2], in assay [6] and in assay [4] was around 0.03 µg/mL in each case.
